These results are taken from US20030211964, “Method of inhibiting pathogenicity of infectious agents” (Massachusetts Institute of Technology, published 2003).

The target in data set [1] is T1, Zα domain of ADAR1 (hZαADAR1) (Homo sapiens) (UniProt P55265).
T1 sequence: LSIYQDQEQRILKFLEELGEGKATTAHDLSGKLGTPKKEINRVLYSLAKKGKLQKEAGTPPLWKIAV
Description: SPR. As to conditions: partial bromination (stabilises Z form); Z-DNA stabilised by bromination.

The target in data set [2] is T2, ZαADAR1 Y177A Y177A (Homo sapiens) (UniProt P55265).
T2 sequence: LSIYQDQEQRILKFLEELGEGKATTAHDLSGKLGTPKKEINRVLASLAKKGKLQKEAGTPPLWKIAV
Put plainly: SPR. As to conditions: partial bromination (stabilises Z form); Z-DNA stabilised by bromination.

Data set [3] concerns the target T3, ZαADAR1 Y177F Y177F (Homo sapiens) (UniProt P55265).
T3 sequence: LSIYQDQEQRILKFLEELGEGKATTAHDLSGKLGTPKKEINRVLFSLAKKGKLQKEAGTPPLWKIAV
Put plainly: SPR. As to conditions: partial bromination (stabilises Z form); Z-DNA stabilised by bromination.

Data set [4] deals with T4, Zβ domain of ADAR1 (hZβADAR1) (Homo sapiens, UniProt P55265 SEQ:1-62).
T4 sequence: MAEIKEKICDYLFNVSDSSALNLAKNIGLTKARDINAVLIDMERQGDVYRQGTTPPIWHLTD
Put plainly: CD at 255 nm; no change over time.

For another data set, the target named is T5, ZαADAR1 Q186A (Homo sapiens, UniProt P55265 SEQ:1-67, Q186A).
T5 sequence: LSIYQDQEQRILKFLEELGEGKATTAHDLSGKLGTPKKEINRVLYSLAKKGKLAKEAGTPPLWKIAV
Put plainly: CD at 255 nm; rate comparable to wild type.

The next data set deals with T6, ZαADAR1 E171A (Homo sapiens, UniProt P55265 SEQ:1-67, E171A).
T6 sequence: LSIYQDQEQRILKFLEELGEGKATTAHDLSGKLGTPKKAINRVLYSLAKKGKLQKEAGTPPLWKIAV
Put plainly: CD at 255 nm; rate comparable to wild type.

Data set [5] has as its target T7, Zα domain of ADAR1 (hZαADAR1) (Homo sapiens, UniProt P55265 SEQ:1-67).
T7 sequence: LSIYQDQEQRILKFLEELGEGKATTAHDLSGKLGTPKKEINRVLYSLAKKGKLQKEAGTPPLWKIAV
Description: CD at 255 nm; rapid, complete B-to-Z conversion; 90 uM bp DNA, 30 uM protein.

partially brominated poly(dG-dC): the Kd (in general, the equilibrium constant for the complex coming apart) in data set [1] was 40 nM; in data set [2] it was 700 nM; in data set [3] it was 350 nM.

B1: d(CG)6 (dsDNA)
DNA 1: CGCGCGCGCGCG
DNA 2: CGCGCGCGCGCG
For the molecule B1, the binding result is reported as “no binding” in data set [4], “binds” with ZαADAR1 Q186A, “binds” with ZαADAR1 E171A and “binds” in data set [5].
